From US20250130242A1 come the findings set out here.

For assay [1], the target named is S24201 antibody. Nature of the assay: competitive ELISA; coated C1A2-01-BSA (printed C1A1-02-BSA), S24201 125 ng/mL, competitive peptide 8 ng/ml. (In an ELISA, binding on a coated surface is turned into a signal by an enzyme label.)
The target in assay [2] is S24201 antibody. Nature of the assay: competitive ELISA; coated C1A2-01-BSA (printed C1A1-02-BSA), S24201 125 ng/mL, competitive peptide 40 ng/ml.
Assay [3] deals with S24201 antibody. Nature of the assay: competitive ELISA; coated C1A2-01-BSA (printed C1A1-02-BSA), S24201 125 ng/mL, competitive peptide 1.6 ng/ml.
The target in assay [4] is S24201 antibody. Nature of the assay: competitive ELISA; coated C1A2-01-BSA (printed C1A1-02-BSA), S24201 125 ng/mL, competitive peptide 200 ng/ml.
Assay [5] addresses S24201 antibody. Nature of the assay: competitive ELISA; coated C1A2-01-BSA (printed C1A1-02-BSA), S24201 125 ng/mL, competitive peptide 0.32 ng/ml.
The target in assay [6] is S24201 antibody. The assay is described as follows: competitive ELISA; coated C1A2-01-BSA (printed C1A1-02-BSA), S24201 125 ng/mL, competitive peptide 1000 ng/ml.
Assay [7] deals with S24201 antibody. Nature of the assay: competitive ELISA; coated C1A2-01-BSA (printed C1A1-02-BSA), S24201 125 ng/mL, competitive peptide 5000 ng/ml.
The target of assay [8] is S24201 antibody. Nature of the assay: competitive ELISA; coated C1A2-01-BSA (printed C1A1-02-BSA), S24201 125 ng/mL, competitive peptide 0 ng/ml (baseline without competitor).

Non-standard residues stand in square brackets, D forms with d. No end group written: not given here. pGlu = O=C1CC[C@@H](C(=O)O)N1

Consider QSLQEETVRK [peptide C1A2-03 (…)], for which the Absorbance at wavelength 492 nm (absorbance at 492 nm) was 0.681 with S24201 antibody [1]; 0.693 with S24201 antibody [2]; 0.7 with S24201 antibody [3]; 0.652 in the assay with S24201 antibody [4]; 0.706 in the assay with S24201 antibody [5]; 0.521 with S24201 antibody [6]. Also, the Absorbance at wavelength 492 nm (absorbance at 492 nm) with S24201 antibody [7] was found to be 0.313; with S24201 antibody [8], 0.702.

Take [pGlu]SLQEETVRK [peptide C1A2-02 (J…)]: the Absorbance at wavelength 492 nm (absorbance at 492 nm) was determined as 0.668 with S24201 antibody [1]; 0.541 with S24201 antibody [2]; 0.735 in the assay with S24201 antibody [3]; 0.306 in the assay with S24201 antibody [4]; 0.712 with S24201 antibody [5]; 0.142 in the assay with S24201 antibody [6]. The figures for the Absorbance at wavelength 492 nm (absorbance at 492 nm) with S24201 antibody [7] and with S24201 antibody [8] were 0.074 and 0.752, respectively.
